Legend:
Experiment in all cases: flow cytometry on cells displaying the construct
[1] = biological target: CID1948 (human GUCY2c point mutant) (human)
[2] = biological target: CID1943 (human GUCY2c point mutant) (human)
[3] = biological target: CID1950 (human GUCY2c point mutant) (human)
[4] = biological target: T1, CID1939 (reverse chimera, chicken GUCY2c with human residues) (chicken/human)
T1 chain: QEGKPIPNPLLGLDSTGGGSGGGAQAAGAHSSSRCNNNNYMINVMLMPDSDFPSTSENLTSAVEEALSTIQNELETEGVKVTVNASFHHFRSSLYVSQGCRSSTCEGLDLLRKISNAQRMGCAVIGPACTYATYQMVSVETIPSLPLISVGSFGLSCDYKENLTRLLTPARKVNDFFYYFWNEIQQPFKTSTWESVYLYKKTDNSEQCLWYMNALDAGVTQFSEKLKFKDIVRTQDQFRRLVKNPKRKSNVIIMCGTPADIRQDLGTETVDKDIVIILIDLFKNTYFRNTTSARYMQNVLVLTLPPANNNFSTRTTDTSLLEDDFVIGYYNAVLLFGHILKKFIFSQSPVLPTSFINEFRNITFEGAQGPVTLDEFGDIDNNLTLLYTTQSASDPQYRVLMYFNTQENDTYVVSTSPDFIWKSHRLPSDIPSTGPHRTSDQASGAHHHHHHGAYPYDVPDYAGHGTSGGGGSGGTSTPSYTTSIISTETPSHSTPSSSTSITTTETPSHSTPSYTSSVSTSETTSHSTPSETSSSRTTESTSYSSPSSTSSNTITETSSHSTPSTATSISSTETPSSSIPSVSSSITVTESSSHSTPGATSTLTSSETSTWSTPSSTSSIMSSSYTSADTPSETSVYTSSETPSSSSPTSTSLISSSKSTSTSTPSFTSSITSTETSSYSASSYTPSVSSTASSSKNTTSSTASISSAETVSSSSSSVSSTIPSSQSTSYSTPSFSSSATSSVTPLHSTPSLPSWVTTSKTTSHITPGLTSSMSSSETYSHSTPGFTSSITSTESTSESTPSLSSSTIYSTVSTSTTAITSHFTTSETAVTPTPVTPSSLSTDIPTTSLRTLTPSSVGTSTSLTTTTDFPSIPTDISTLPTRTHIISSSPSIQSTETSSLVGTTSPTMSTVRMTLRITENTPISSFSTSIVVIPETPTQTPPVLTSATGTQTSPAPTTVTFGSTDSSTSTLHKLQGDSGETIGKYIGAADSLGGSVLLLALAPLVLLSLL

[5] = biological target: T2, CID1877 (human-chicken GUCY2c chimera) (human/chicken)
T2 chain: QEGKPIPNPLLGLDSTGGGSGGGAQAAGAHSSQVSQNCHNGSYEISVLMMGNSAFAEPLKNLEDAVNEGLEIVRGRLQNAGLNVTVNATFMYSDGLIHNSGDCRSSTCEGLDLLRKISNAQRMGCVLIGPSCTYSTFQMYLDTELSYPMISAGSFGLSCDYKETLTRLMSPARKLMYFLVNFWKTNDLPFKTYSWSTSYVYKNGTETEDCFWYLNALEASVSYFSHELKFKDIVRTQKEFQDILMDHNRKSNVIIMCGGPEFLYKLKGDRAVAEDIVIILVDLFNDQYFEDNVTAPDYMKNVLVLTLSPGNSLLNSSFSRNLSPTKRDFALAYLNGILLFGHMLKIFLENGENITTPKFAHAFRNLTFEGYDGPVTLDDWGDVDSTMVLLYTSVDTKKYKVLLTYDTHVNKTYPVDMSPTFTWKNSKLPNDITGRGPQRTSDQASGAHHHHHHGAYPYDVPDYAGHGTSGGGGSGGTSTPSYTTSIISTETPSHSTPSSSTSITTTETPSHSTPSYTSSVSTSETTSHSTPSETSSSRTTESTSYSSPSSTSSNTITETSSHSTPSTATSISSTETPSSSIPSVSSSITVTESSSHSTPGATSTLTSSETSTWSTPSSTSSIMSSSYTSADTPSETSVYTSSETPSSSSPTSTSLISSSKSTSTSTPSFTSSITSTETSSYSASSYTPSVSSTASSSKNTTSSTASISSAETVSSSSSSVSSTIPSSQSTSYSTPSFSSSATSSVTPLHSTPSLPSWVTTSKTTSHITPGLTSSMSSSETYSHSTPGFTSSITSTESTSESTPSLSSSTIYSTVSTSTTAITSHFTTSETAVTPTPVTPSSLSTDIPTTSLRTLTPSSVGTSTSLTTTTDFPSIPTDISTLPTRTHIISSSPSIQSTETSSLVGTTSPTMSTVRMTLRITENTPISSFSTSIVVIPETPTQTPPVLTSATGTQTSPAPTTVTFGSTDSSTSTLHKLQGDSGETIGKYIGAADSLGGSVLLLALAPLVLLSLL

[6] = biological target: CID1941 (human GUCY2c point mutant) (human)

Measured: binding result

B1: GUCY2C-1608 (bispecific antibody)
chain 1: DIQLTQSPSSLSASVGDRVTITCRASESVDYYGSSLLQWYQQKPGKAPKLLIYAASKLASGVPSRFSGSGSGTDFTLTISSLQPEDFATYYCQQTRKAYTFGQGTKLEIKGGGSGGGGEVQLVESGGGLVQPGGSLRLSCAASGFTFSDYYMTWVRQAPGKGLEWVAFIRNQARGYTSDHNPSVKGRFTISRDNAKNSLYLQMNSLRAEDTAVYYCARDRPSYYVLDYWGQGTTVTVSSGCPPCPAPEAAGAPSVFLFPPKPKDTLMISRTPEVTCVVVDVSHEDPEVKFNWYVDGVEVHNAKTKPREEQYNSTYRVVSVLTVLHQDWLNGKEYKCKVSNKALPAPIEKTISKAKGQPREPQVCTLPPSREEMTKNQVSLWCLVKGFYPSDIAVEWESNGQPENNYKTTPPVLDSDGSFFLYSKLTVDKSRWQQGNVFSCSVMHEALHNHYTQKSLSLSPG
chain 2: DIQMTQSPSSLSASVGDRVTITCTSSQSLFNVRSQKNYLAWYQQKPGKAPKLLIYWASTRESGVPSRFSGSGSGTDFTLTISSLQPEDFATYYCKQSYDLFTFGGGTKVEIKGGGGSGGGGEVQLVESGGGLVQPGGSLRLSCAASGFTFSSYWMHWVRQAPGKGLEWIGEIKPSNELTNVHEKFKDRFTISVDKAKNSAYLQMNSLRAEDTAVYYCTRTITTTEGYWFFDVWGQGTLVTVSSGCPPCPAPEAAGAPSVFLFPPKPKDTLMISRTPEVTCVVVDVSHEDPEVKFNWYVDGVEVHNAKTKPREEQYNSTYRVVSVLTVLHQDWLNGKEYKCKVSNKALPAPIEKTISKAKGQPREPQVYTLPPCREEMTKNQVSLSCAVKGFYPSDIAVEWESNGQPENNYKTTPPVLDSDGSFFLVSKLTVDKSRWQQGNVFSCSVMHEALHNHYTQKSLSLSPG
notes: also called GUCY2c CD3 bispecific
binds: [1] | [2] | [3] | [4] | [5] | [6]

From patent US20230340151A1 (Pfizer, published 2023)
